Assay results from PMC314469, “Protein Interaction Networks by Proteome Peptide Scanning” (PLoS Biology, 2004).

T1: amphyphisin SH3 (AMPH_HUMAN), P49418
T1 chain: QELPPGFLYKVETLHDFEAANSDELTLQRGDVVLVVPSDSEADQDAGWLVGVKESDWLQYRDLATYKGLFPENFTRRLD


How the values were obtained:
[1] = target: T1, amphyphisin SH3 (AMPH_HUMAN), P49418; assay: SPOT array
[2] = target: endophilin SH3 (SH3G2_HUMAN), Q99962; assay: SPOT array

Row | Binder | normalised SPOT signal, Boehringer light units (BLU); mean over the file's lines of this peptide [1] | normalised SPOT signal, Boehringer light units (BLU); mean over the file's lines of this peptide [2]
1 | NNRVLRRPSERGRA [Q9Y3S6 986-999] | 150 | 652
2 | NINGIRRPLQGVAN [Q9Y5X7 8-21] | 17.3 | 44.7
3 | NFGNLPRPGRGARG [Q9NYJ2 360-373] | 946 | 1340
4 | ARGSPARPRRLPLL [Q13308 4-17] | 6690 | 1930
5 | NQKQLKRPAQGKRQ [Q9H6S7 54-67] | -0 | 68.6
6 | AREEFRRPRESLLN [Q96JI4 1223-1236] | 19.8 | 27.4
7 | NRWGPGRPPFRKAQ [Q9Y2K9 813-827] | 67.5 | 6400
8 | NEPLFVRPPKGSPQ [Q9H251 2718-2731] | 215 | 154
9 | NGAEPKRPSRPINI [Q9Y6X2 222-235] | 3920 | 105
10 | NQSVPKRPAGSVQN [P00533 1094-1107] | 23.4 | 26.5
11 | NLLPPKRPIKEVLT [Q9NNY5 699-712] | 370 | 1560
12 | NIEKIKRPRSSNAE [Q12920 238-251] | 26.5 | 55.4
13 | NGYFFKRPYPFVLF [Q9NWE7 371-384] | 64.4 | 106
14 | NFGDLGRPGRGGRG [Q9Y367 343-356] | 895 | 882
15 | NMSDPRRPNKVLRY [Q9Y284 5-18] | 641 | 1060
16 | NIQTLDRPIKKGPV [Q9P2M9 345-358] | 16.4 | 58.7
17 | NMNRFDRPDRNVRQ [Q9ULU1 327-340] | 3660 | 452
18 | NEDYPRRPLTRARS [Q9HC40 116-129] | 393 | 690
19 | NKIEFKRPGKAANK [Q9ULP1 1037-1050] | 124 | 128

Now from value to binder:

Row | normalised SPOT signal, Boehringer light units (BLU); mean over the file's lines of this peptide [1] | normalised SPOT signal, Boehringer light units (BLU); mean over the file's lines of this peptide [2] | Binder
20 | 32.2 | 125 | NKVHIKRPTTGLLM [Q92186 286-299]
21 | 318 | 102 | NPALFPRPERYNPQ [P15538 413-426]
22 | 113 | 1970 | NLFGPKRPKALKLL [O75560 490-503]
23 | 4650 | 35.6 | NGVEPKRPSRPINI [O75925 239-252]
24 | 45.8 | 267 | NNPLIGRPNKVTTV [O60306 1318-1331]
25 | 46.1 | 0 | NEPHIKRPMNAFMV [P35711 136-149]
26 | 30.4 | 31.6 | ARKQPRRPHFLLEP [O60289 975-988]
27 | 6.6 | 366 | NKVPIKRPSTGLLM [Q92187 271-284]
28 | 742 | 154 | NETGLSRPRRTAMS [Q15598 1736-1749]
29 | 793 | 525 | NFQPPKRPFKRMNY [O43776 380-393]
30 | 29.7 | 23.4 | NLSLLRRPGEKTYT [P23246 281-294]
31 | 5 | 150 | NGTQILRPPKVLSP [Q14676 96-109]
